From the nanobody polyreactivity screen of Harvey et al. (2022) come the findings set out here.

This series in a line: yeast display, Sf9 membrane polyspecificity reagent, FACS + sequencing; frameworks hold sequencing errors. The method in brief: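 Synthetic nanobody libraries on Saccharomyces cerevisiae BJ5465 were galactose-induced for 36–48 hours, stained 1 hour at 4 °C with 10% biotinylated, detergent-solubilized Sf9 membrane reagent and enriched on streptavidin microbeads. FACS then separated cells into low and high (top ~1%) gates by anti-HA (expression) and streptavidin (reagent binding) fluorescence. Genes were colony-PCR amplified, MiSeq 2 × 250 sequenced and CDR-length filtered. A clone's polyreactivity label is that of its gate of origin.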
For “QVQRVESGGGLVQAGGSLRLSCAASGNTFWLNAMGWYRQAPGKERELVAAITYTDGSTYADSVKGRFTISRDNAKNTVYLQMNSLKPEDTAVYYCAARYQWDWRDYYYWGQGTQVTVSS”, the “polyreactivity (PSR sort gate)” value is recorded as “low polyreactivity”.

Take “QVQRVESGGGLVQAGGSLRLSCAASGRIFYFNAMGWYRQAPGKEWELVAVINSSGSTDYADSVKGRFTISRDNAKNTVYLQMNSLKPEDTAVYYCAAEVTPSGYGYWGQGTQVTVSS”: the “polyreactivity (PSR sort gate)” value is recorded as “low polyreactivity”.

Consider “QVQRVESGGGLVQAGGSLRLSCAASGRILYWYAMGWYRQAPGKERELVAGIDWSGGSTYYADSVKGRFTISRDKAKTTVYLQMNSLKPEDTAVYYCNAAQNRGRGSHRGESTYYYSGQGTQVTVSS”, for which the “polyreactivity (PSR sort gate)” value is “low polyreactivity”.

Take “QVQRVESGGGLVQAGGSLRLSCAASGRTFYGYAMGWYRQAPGKDRELVASISWSTGSTHYADSVKGRFTISRVNAKNTVYVQMNSLKPEATAVYYCAAPFWRDSYVQIDYDYWGQGTQVTVSS”: the “polyreactivity (PSR sort gate)” value is given as “low polyreactivity”.

As for “QVQRVESGGGLVQAGGSLRLSCAASGRTFYLNAMGWYRQATGKERQLVAAINRGTRTYYADSVKGRFTISRDNAKNTVYLQMNSVKPEDTAVYYCAAVPRYYYSSSYTMDYWGQGTQVTVSS”, the “polyreactivity (PSR sort gate)” value is on record as “high polyreactivity”.

Consider “QVQRVESGGGLVQAGGSLRLSCAASGSIFFRNVMGWYRQAPGKERELVAAISSRGGSTYYADSVKGRFTISRDIAKNTVYLQMNSLKPEDTAVYYCATSHTPTYNYWGQGPQVTVSS”, for which the “polyreactivity (PSR sort gate)” value was “high polyreactivity”.

Consider “QVQRVESGGGLVQAGGSLRLSCAASGSIFPSNTMGWYRQAPGKERELVAAISGSGTRTYYADSVKGRFTISRDNAKNTVYLQMNSLKPEDTAVYYCAADVDYWGQGTQVTVSS”, for which the “polyreactivity (PSR sort gate)” value was “low polyreactivity”.

As for “QVQRVESGGGLVQAGGSLRLSCAASGSIFSIYAMGWYRQAPGKETELVAAIDSGTSTTYADSVKGRFTISRDNAKNTVYLEMNSLKPEDTAVYYCAAALYSDVAAVATYGYYCGQGTQVTVSS”, the “polyreactivity (PSR sort gate)” value was “low polyreactivity”.

“QVQRVESGGGLVQAGGSLRLSCAASGSNFRVYVMGWYRQAPGKERELVARIRYRSGRTNYADSVKGRFTISRDNAKNTVYLQMNSLKPEDTAVYYCAARTPAYARTYGYWGQGTQVTVSS”: the “polyreactivity (PSR sort gate)” value was “high polyreactivity”.

“QVQRVESGGGLVQAGGSLRLSCAASGSTFGNAMGWYRQAPGKERELVAAISSRGDRTYYADSVQGRFTISRDNAKNTVYLQMNSLKPEDTAVYYCAKDGYPNKYDYWGQGTQVTVSS”: the “polyreactivity (PSR sort gate)” value is “high polyreactivity”.

As to “QVQRVESGGGLVQAGGSLRLSCAASGSTFWFNAMGWYRQAPGKERELVAAITYRGASTNYADSVKGRFTISRDNAKNTVYLQMNSLKPEDTAVYYCATRPTWRPVPDSDVSTYGYWGQGTQVTVSS”, the “polyreactivity (PSR sort gate)” value is listed as “low polyreactivity”.

With “QVQRVESGGGLVQAGGSLRLSCAASGYIFKYYAMGWYRHSPGKVRELVAAITGGVSTNYADSVKGRFTISRDNAKNTVYLQMNSLKPEDTAVYYCAAAITPSYTGSEYDYWGQGTQVTVSS”, the “polyreactivity (PSR sort gate)” value is on record as “low polyreactivity”.

Take “QVQRVESGGGLVQAGGSLRLSCAASGYTSQVKDMGWYRQAPGKERELVAAISSTGDRTYYADSVKGRFTISRDNAKNTVYLQMNSLKPEDTAVYYCNADLTSYYEEDERNDDDYWGQGTQVTVSS”: the “polyreactivity (PSR sort gate)” value is reported as “low polyreactivity”.

In the case of “QVQRVESGGGLVQAGGSLRLSCGASGSTFWAYVMGWYRPAPGKERELVAAMSSGGTTNYADSVKGRFTISRDNAKNTVYLQMNSLKPEDTAVYYCAAGRPGELDYWGQGTQVTVSS”, the “polyreactivity (PSR sort gate)” value is recorded as “low polyreactivity”.

On to “QVQRVESGGGLVQAGGSLRLSSAASGRIFWDNAMGGYRQEPGKERELVAAISDSVVITYYADSVKGRFTITRDNAKNTVYLQMNSLKPEDTAVYYCNVTGGPYDFTRWSEFDHWGQGTQETVSS”, for which the “polyreactivity (PSR sort gate)” value is given as “low polyreactivity”.

Regarding “QVQRVESGGGLVQAGGSLRLSSAASGRTSRYAMGWYRQAPGKERELVAAISRSGGSTHNADSVKGRFTISRDNAKNNVYLHMNSLKPEDTAVYSCNAQQGRYWSAKGYDYWGQGTQVTVSS”, the “polyreactivity (PSR sort gate)” value is “high polyreactivity”.

Regarding “QVQRVESGGGLVQAGGSLRLTCAASGITFFVYAMGCYRQAPGKERELVATINWSGASTYYADSVKGRFTISRDNAKNSVYLQMNSLKPEDTAVYYCAKDGHYPLVYLAFDYWGQGTQVTVSS”, the “polyreactivity (PSR sort gate)” value was “low polyreactivity”.

Take “QVQRVESGGGLVQAGGSLRLTCAASGLTFRTYAMGWYRQAPGKERELVAAISGTGGTTYYADSVKGRFTISRDNAKNTVYLQMNSLKPEDTAVYYCNKRWRRPYPYDYWGQGSQVTVSS”: the “polyreactivity (PSR sort gate)” value is on record as “high polyreactivity”.

Take “QVQRVESGGGLVQAGGSLRLTCAASGSIFRSYAMGWYRQAPGKERELVAAISSSSGSTYYADSVKGRFTISRDKAKYTVYLQMNSLKPEDTAVYYCAARYRIGNNGYEYWGQGTQVTVSS”: the “polyreactivity (PSR sort gate)” value is “low polyreactivity”.

Take “QVQRVESGGGLVQAGGSLRLTCAASGYTSLWYGMGWSRQAPGKERDLVAAISSSGNTNYADSVKGRFTISRDNAKNTVYLQMNSLKPEDTAVYYCAVELKQVTPGLGYITLDYWGQGTQVTVSS”: the “polyreactivity (PSR sort gate)” value is recorded as “low polyreactivity”.

“QVQRVESGGGLVQAGGSLSLSCAASGRTCGVYAMGWYRQAPGKERELGASSSRSAGSTYYADSVKGRFTISRDNAKNTVYFQMNSLKTEDTAVYYCAAVYKRGMDYWGQGTQVTVSS”: the “polyreactivity (PSR sort gate)” value is given as “high polyreactivity”.

Consider “QVQRVESGGGLVQAGRSLRLSCAASGTTFGRNAMGWYRQAPGIERELVAAINSGGGTYYADSVKGRFTISRDNAKNTVYLQMNSLKPEDTSVFYCAAARRYGNYDYWGQGTQLTVSS”, for which the “polyreactivity (PSR sort gate)” value is reported as “low polyreactivity”.

Take “QVQRVESGGGLVQAVGRLRLSCAASGSTFYTYTMGWYRPARGKERELVAAITWSGGSTYYADSVKGRFTISRDNAKNTVYLQMNRLKPEDTAVYYCNADQDYQGARPSGMDYWGLGTQVTVSS”: the “polyreactivity (PSR sort gate)” value is “low polyreactivity”.

On to “QVQRVESGGGLVQEGGSLRLSCAASGRIFGYYAMGWYRQAPGKERELVAVITGNGSTYYADSVKGRFTISRDNAKNTVYLQRNSLNPEETAVYYCAARYVFVVRGRTVPRYYYWGQGTQVTVSS”, for which the “polyreactivity (PSR sort gate)” value was “high polyreactivity”.

In the case of “QVQRVESGGGVVQAGGSLRLSCAASGSTFQLYAMGWYRQAPGKERELVAGISRDGSTYYADSVKGRFTISRDNAKNTVYLQMNSLKPEDTAVYYCAAKYYGNKRDLYYWGQGTQVTVSS”, the “polyreactivity (PSR sort gate)” value is given as “low polyreactivity”.

“QVQRVESWGGLVQAGGSLRLSCAASGSTFEYNAMGWNRQAPGKEREFVAAISRTGSRTYYADSVKGRFTISRDNAKNTVYLQMNSLKPEDTAVYYCARVKSRLQVGYYYWGQGTQVTVSS”: the “polyreactivity (PSR sort gate)” value is listed as “high polyreactivity”.

As to “QVQVLESGGGLVQAGGSLRLSCAASGSIFDFYAMGWYRQAPGKDRELVAAISYRGGSTYADSVKGRFTISRDNAKNTVYLQMNSLKPEDTAVYYCAKVPDYRFEYWGQGTQVTVSS”, the “polyreactivity (PSR sort gate)” value was “high polyreactivity”.

Regarding “QVQVVESGGGLDQAGGSLRLSCAASGSIFQVYSMGWYRQAPGQERALVAAITWAAGSTYADSVKGRFTISRDNAKNTVYLQLKSLKPDDTAVYYCAAYPYVGYVTSSAYDYWGQGTQVTVSS”, the “polyreactivity (PSR sort gate)” value was “low polyreactivity”.

Turning to “QVQVVESGGGLFQAGGSLRLSCAASGYIFRFNAMGWSRQAPGKERELVAVITSGARTYYADSVKGRFTISRDNAKNTVYFQINSLKPEDTAFYYFNAGARRYLYDYWGQGTQVTVSS”, the “polyreactivity (PSR sort gate)” value is “low polyreactivity”.

Turning to “QVQVVESGGGLVQAGGSLRLSCAASGFIFNTHAMGWYRQAPGKERELVAAITWTGDSTYYADSVKGRFTISRDYAKNTVYLQMNSLKPEDTAVYYCNAATGDWETSIWTYPFWAEMYYWGQGTQVNVSS”, the “polyreactivity (PSR sort gate)” value is recorded as “low polyreactivity”.

For “QVQVVESGGGLVQAGGSLRLSCAASGFIFRYYAMGWYRQAPGKEREFVAAISTSAGSTYYADSVKGRFTISRDNAKNTVYLQMNSLKPEDTAVSYCAAEYWRRASYNYWGQGTQVTVSS”, the “polyreactivity (PSR sort gate)” value is reported as “high polyreactivity”.

“QVQVVESGGGLVQAGGSLRLSCAASGFTYGNNGMGWYRQAPGKERELVATISWSGGSTYADSVKGRFTISRDNAKNTVYLQMNSLKPEDTAVYYCAARYFVYYQEVDYWGQGTQVTVSS”: the “polyreactivity (PSR sort gate)” value was “low polyreactivity”.

As to “QVQVVESGGGLVQAGGSLRLSCAASGLTYSYYTMGWYRQAPGKERELVAAITSSSGRTYYADSVKGRITISRDNAKNTVYLQMNSLKPEDTAVYYCAARWSPYDYWGQGTQVTVSS”, the “polyreactivity (PSR sort gate)” value is “low polyreactivity”.

Turning to “QVQVVESGGGLVQAGGSLRLSCAASGRIFANNAMGWYRQAPGKERELVAAITASSGSTYYADSVKGRFTISRDNAKNTVYFQMNSLKPEDTAFYYCAATLRWGFRWYFGFDYWGQGTQVTVSS”, the “polyreactivity (PSR sort gate)” value is “high polyreactivity”.

On to “QVQVVESGGGLVQAGGSLRLSCAASGRIFPYYTMGWYRQAPGKERDLVAAISRRGSSTYYADSVKGRFTISRDNAKNTVYLQMNSLKPEDTAVYYCAADRGGYTRTGEYDYWGQCTQVTVSS”, for which the “polyreactivity (PSR sort gate)” value is reported as “high polyreactivity”.

Regarding “QVQVVESGGGLVQAGGSLRLSCAASGSIFKFNAMGWYRQAPGKERELVAAISYSGGNTDYADSVKGRFTISRDNAKNTVYLQMNSLKPEDTAVYYCAATSYLVLTLEYDYWGQGTQVTVSS”, the “polyreactivity (PSR sort gate)” value is “low polyreactivity”.

As for “QVQVVESGGGLVQAGGSLRLSCAASGSIFSYNAMGWYRQAPGKERELVATITWSAGSTYYADSVKGRFTISRDNAKNPVYLQMNSLKPEDTAVYYCAKRARESSSVSRVNYWFDYWGQGTQVTVSS”, the “polyreactivity (PSR sort gate)” value is “low polyreactivity”.

Regarding “QVQVVESGGGLVQAGGSLRLSCAASGSIFTYYAMGWYRQAPGKERELVAAINWSGASTYYADSVKGRFTISRDNAKNTVYLQMNSLKPEDTAVYYCAGYGYWGQGTQVTVSS”, the “polyreactivity (PSR sort gate)” value was “high polyreactivity”.

For the sequence “QVQVVESGGGLVQAGGSLRLSCAASGSSFGVNAMGRYTQAPGKERELVASITWSGDNTYYADSVKGRFTISRDNAKNTVYLQMNSLKPEDTAVYYCAATIWIAYRGWYSDYNYWGQGTQVTVSS”, the “polyreactivity (PSR sort gate)” value is “low polyreactivity”.

In the case of “QVQVVESGGGLVQAGGSLRLSCAASGSTCYFNAMGWYRQAPGTERELVAAIEWSGGSTYYADSVKGRFTISRDNAKNTVYLQMTSLKPEDTAVYYCNRRDVIFLTGPPQYIFPTYDYWGQGTQVTVSS”, the “polyreactivity (PSR sort gate)” value is recorded as “low polyreactivity”.

With “QVQVVESGGGLVQAGGTLRLSCAASGFILPHYTMGWYRQAPAKERELVAAITSGVSTYYADSVKGRFTISRDNAKNTVYLQMNSLKTEDTAVYYCNALATYIGYKYDYWGQGTQVTVSS”, the “polyreactivity (PSR sort gate)” value is “low polyreactivity”.
